{
  "source": "paper doi:10.1101/2024.02.16.579620",
  "about": "(bioRxiv, 2024)",
  "binders": {"B1": {"name": "FITC-labelled human Ire1α luminal domain (aa 24-449) (domain or fragment)", "chain": "STVTLPETLLFVSTLDGSLHAVSKRTGSIKWTLKEDPVLQVPTHVEEPAFLPDPNDGSLYTLGSKNNEGLTKLPFTIPELVQASPCRSSDGILYMGKKQDIWYVIDLLTGEKQQTLSSAFADSLCPSTSLLYLGRTEYTITMYDTKTRELRWNATYFDYAASLPEDDVDYKMSHFVSNGDGLVVTVDSESGDVLWIQNYASPVVAFYVWQREGLRKVMHINVAVETLRYLTFMSGEVGRITKWKYPFPKETEAKSKLTPTLYVGKYSTSLYASPSMVHEGVAVVPRGSTLPLLEGPQTDGVTIGDKGECVITPSTDVKFDPGLKSKNKLNYLRNYWLLIGHHETPLSASTKMLERFPNNLPKHRENVIPADSEKKSFEEVINLVDQTSENAPTTVSRDVEEKPAHAPARPEAPVDSMLKDMATIIL", "modifications": "FITC label (site not stated)"}, "B2": {"name": "human Ire1α luminal domain (aa 24-449), wild type (domain or fragment)", "chain": "B1 chain"}},
  "key": {"MST": {"target": "the molecule itself", "assay": "MST"}, "ΔEspP peptide": {"target": "ΔEspP peptide", "assay": "dynamic light scattering"}, "SEC": {"target": "the molecule itself", "assay": "SEC"}},
  "note": "Where “and” joins values, the source holds several entries; their conditions need not be identical. Equal entries are not always repeated.",
  "data": [
    {"binder": "B1", "values": [
      {"measurement": "Kd", "setting": "MST", "result": 500, "unit": "nM"}
    ]},
    {"binder": "B2", "values": [
      {"measurement": "binding result", "setting": "ΔEspP peptide", "result": "binds"},
      {"measurement": "stoichiometry N", "setting": "SEC", "result": "2 and 4"}
    ]}
  ]
}
